Source: the Immune Epitope Database (IEDB)
Values belong to the sequence of their own block, whether it stands above or below them.

Key:
HLA-A*02:01 [1] = assay: IEDB peptide-MHC binding, purified MHC/competitive/fluorescence; filed as Kd, often an IC50 or EC50 that approximates it; ≥ and ≤ were set here for values at or beyond the usual limits of such assays
HLA-A*02:19 = assay: as above
HLA-A*01:01 = assay: IEDB peptide-MHC binding, purified MHC/direct/fluorescence; filed as Kd, often an IC50 or EC50 that approximates it; ≥ and ≤ were set here for values at or beyond the usual limits of such assays
HLA-A*02:01 [2] = assay: as above
HLA-A*03:01 [3] = assay: as above
HLA-A*11:01 = assay: as above
HLA-A*24:03 [4] = assay: as above
HLA-A*26:01 [5] = assay: as above
HLA-A*30:01 = assay: as above; conditions: source organism: Salmonella enterica subsp. enterica serovar Typhi
HLA-A*31:01 = assay: as above
HLA-A*69:01 = assay: as above
HLA-B*08:01 = assay: as above
HLA-B*15:01 [6] = assay: as above
HLA-B*27:05 = assay: as above
HLA-B*35:01 = assay: as above
HLA-B*40:01 = assay: as above
HLA-B*58:01 = assay: as above
HLA-C*12:03 = assay: as above
HLA-A*03:01 [7] = assay: IEDB peptide-MHC binding, purified MHC/competitive/fluorescence; filed as Kd, often an IC50 or EC50 that approximates it; ≥ and ≤ were set here for values at or beyond the usual limits of such assays; conditions: source organism: Salmonella enterica subsp. enterica serovar Choleraesuis str. SC-B67
HLA-A*23:01 = assay: as above; conditions: source organism: Salmonella enterica subsp. enterica serovar Choleraesuis str. SC-B67
HLA-A*24:03 [8] = assay: as above
HLA-A*26:01 [9] = assay: as above; conditions: source organism: Salmonella enterica subsp. enterica serovar Choleraesuis str. SC-B67
HLA-A*29:02 = assay: as above; conditions: source organism: Salmonella enterica subsp. enterica serovar Choleraesuis str. SC-B67
HLA-B*15:01 [10] = assay: as above; conditions: source organism: Salmonella enterica subsp. enterica serovar Choleraesuis str. SC-B67
HLA-B*15:17 [11] = assay: as above; conditions: source organism: Salmonella enterica subsp. enterica serovar Choleraesuis str. SC-B67
HLA-B*18:01 = assay: as above; conditions: source organism: Salmonella enterica subsp. enterica serovar Choleraesuis str. SC-B67
HLA-B*27:03 = assay: as above; conditions: source organism: Salmonella enterica subsp. enterica serovar Choleraesuis str. SC-B67
HLA-B*39:01 = assay: as above; conditions: source organism: Salmonella enterica subsp. enterica serovar Choleraesuis str. SC-B67
HLA-B*46:01 = assay: as above; conditions: source organism: Salmonella enterica subsp. enterica serovar Choleraesuis str. SC-B67
HLA-B*57:01 [12] = assay: as above; conditions: source organism: Salmonella enterica subsp. enterica serovar Choleraesuis str. SC-B67
HLA-A*02:12 = assay: as above; conditions: source organism: Burkholderia pseudomallei 668
HLA-B*07:02 = assay: IEDB peptide-MHC binding, purified MHC/direct/fluorescence; filed as Kd, often an IC50 or EC50 that approximates it; ≥ and ≤ were set here for values at or beyond the usual limits of such assays
HLA-B*15:17 [13] = assay: as above
HLA-B*57:01 [14] = assay: as above
HLA-C*06:02 = assay: as above
HLA-B*15:42 = assay: IEDB peptide-MHC binding, purified MHC/competitive/fluorescence; filed as Kd, often an IC50 or EC50 that approximates it; ≥ and ≤ were set here for values at or beyond the usual limits of such assays; conditions: source organism: Burkholderia mallei SAVP1
HLA-B*45:06 = assay: as above; conditions: source organism: Burkholderia mallei SAVP1
HLA-B*83:01 = assay: as above; conditions: source organism: Burkholderia mallei SAVP1
HLA-C*05:01 = assay: IEDB peptide-MHC binding, purified MHC/direct/fluorescence; filed as Kd, often an IC50 or EC50 that approximates it; ≥ and ≤ were set here for values at or beyond the usual limits of such assays
HLA-B*48:01 = assay: as above; conditions: source organism: West Nile virus
HLA-B*44:02 = assay: as above
[15] = source organism: Acinetobacter baylyi
[16] = source organism: Salmonella enterica
[17] = source organism: Salmonella enterica subsp. enterica serovar Typhi
[18] = source organism: Salmonella enterica subsp. enterica serovar Choleraesuis str. SC-B67
[19] = source organism: Rickettsia felis
[20] = source organism: Rickettsia prowazekii
[21] = source organism: Burkholderia thailandensis
[22] = source organism: Brucella abortus 2308
[23] = source organism: Brucella melitensis
[24] = source organism: Vibrio parahaemolyticus

Kd (HLA-A*02:01 [1]; [15]): 0.16 µM
Kd (HLA-A*02:19; [15]): 0.0141 µM
Sequence: DLMLLSYSL

Sequence: EHFYWGSVF
Kd (HLA-A*01:01; [16]): ≥ 20 µM
Kd (HLA-A*02:01 [2]; [16]): ≥ 20 µM
Kd (HLA-A*03:01 [3]; [16]): ≥ 20 µM
Kd (HLA-A*11:01; [17]): 7.98 µM
Kd (HLA-A*24:03 [4]; [17]): 0.318 µM
Kd (HLA-A*26:01 [5]; [16]): ≥ 20 µM
Kd (HLA-A*30:01): 19.2 µM
Kd (HLA-A*31:01; [16]): ≥ 20 µM
Kd (HLA-A*69:01; [16]): ≥ 20 µM
Kd (HLA-B*08:01; [16]): ≥ 20 µM
Kd (HLA-B*15:01 [6]; [17]): 1.89 µM
Kd (HLA-B*27:05; [16]): ≥ 20 µM
Kd (HLA-B*35:01; [17]): 0.427 µM
Kd (HLA-B*40:01; [16]): ≥ 20 µM
Kd (HLA-B*58:01; [16]): ≥ 20 µM

Sequence: FTRDTGATL
Kd (HLA-C*12:03; source organism: Mycobacterium tuberculosis variant bovis BCG str. Pasteur 1173P2): ≤ 0.001 µM

Sequence: GIALAVPCV
Kd (HLA-A*02:01 [1]; [18]): 0.0007 µM
Kd (HLA-A*02:19; [18]): 0.0018 µM
Kd (HLA-A*03:01 [7]): ≥ 20 µM
Kd (HLA-A*23:01): ≥ 20 µM
Kd (HLA-A*24:03 [8]; [18]): ≥ 20 µM
Kd (HLA-A*26:01 [9]): ≥ 20 µM
Kd (HLA-A*29:02): 3 µM
Kd (HLA-B*15:01 [10]): ≥ 20 µM
Kd (HLA-B*15:17 [11]): ≥ 20 µM
Kd (HLA-B*18:01): ≥ 20 µM
Kd (HLA-B*27:03): ≥ 20 µM
Kd (HLA-B*39:01): ≥ 20 µM
Kd (HLA-B*46:01): ≥ 20 µM
Kd (HLA-B*57:01 [12]): ≥ 20 µM

Sequence: GIYGAVIPL
Kd (HLA-A*02:01 [1]; source organism: Burkholderia pseudomallei 668): ≤ 0.0001 µM
Kd (HLA-A*02:12): 0.0086 µM

Sequence: GSFKEYVFW
Kd (HLA-A*01:01; [19]): ≥ 20 µM
Kd (HLA-A*02:01 [2]; [19]): ≥ 20 µM
Kd (HLA-A*03:01 [3]; [19]): ≥ 20 µM
Kd (HLA-A*11:01; [19]): ≥ 20 µM
Kd (HLA-A*26:01 [5]; [19]): ≥ 20 µM
Kd (HLA-A*31:01; [19]): ≥ 20 µM
Kd (HLA-A*69:01; [19]): ≥ 20 µM
Kd (HLA-B*07:02; [19]): ≥ 20 µM
Kd (HLA-B*08:01; [19]): ≥ 20 µM
Kd (HLA-B*15:01 [6]; [20]): 5.69 µM
Kd (HLA-B*15:17 [13]; [19]): 0.105 µM
Kd (HLA-B*27:05; [19]): ≥ 20 µM
Kd (HLA-B*35:01; [20]): 1.9 µM
Kd (HLA-B*40:01; [19]): ≥ 20 µM
Kd (HLA-B*57:01 [14]; [19]): 0.167 µM
Kd (HLA-B*58:01; [20]): 0.00781 µM

Kd (HLA-C*06:02; source organism: Mus musculus): 0.026 µM
Sequence: IRHNKDRKV

Sequence: MALATGLWW
Kd (HLA-B*15:17 [13]; [21]): 0.0004 µM
Kd (HLA-B*57:01 [14]; source organism: Burkholderia mallei ATCC 23344): 0.033 µM
Kd (HLA-B*58:01; [21]): 0.0005 µM
Kd (HLA-B*15:42): ≥ 5 µM
Kd (HLA-B*45:06): ≥ 5 µM
Kd (HLA-B*83:01): ≥ 5 µM

Sequence: MTIGMANLI
Kd (HLA-C*05:01; source organism: Influenza A virus (A/California/04/2009(H1N1))): ≥ 20 µM

Sequence: RRSRRSLTV
Kd (HLA-B*48:01): ≥ 20 µM
Kd (HLA-C*06:02; source organism: West Nile virus): 0.036 µM

Sequence: TPPVDRMAV
Kd (HLA-A*01:01; [22]): ≥ 20 µM
Kd (HLA-A*02:01 [2]; [22]): ≥ 20 µM
Kd (HLA-A*03:01 [3]; [22]): ≥ 20 µM
Kd (HLA-A*11:01; [22]): ≥ 20 µM
Kd (HLA-A*24:03 [4]; [22]): ≥ 20 µM
Kd (HLA-A*26:01 [5]; [22]): ≥ 20 µM
Kd (HLA-A*31:01; [22]): ≥ 20 µM
Kd (HLA-A*69:01; [22]): ≥ 20 µM
Kd (HLA-B*07:02; [23]): 0.288 µM
Kd (HLA-B*08:01; [23]): 9.04 µM
Kd (HLA-B*27:05; [22]): ≥ 20 µM
Kd (HLA-B*35:01; [23]): 1.07 µM
Kd (HLA-B*40:01; [22]): ≥ 20 µM
Kd (HLA-B*44:02; [22]): ≥ 20 µM
Kd (HLA-B*58:01; [22]): ≥ 20 µM

Kd (HLA-C*05:01; source organism: Escherichia coli E22): ≤ 0.001 µM
Sequence: VADEIAFGL

Sequence: VSFICTTIL
Kd (HLA-C*12:03; source organism: Murid gammaherpesvirus 4): 0.485 µM

Sequence: YREAGIPVL
Kd (HLA-A*01:01; [24]): ≥ 20 µM
Kd (HLA-A*02:01 [2]; [24]): ≥ 20 µM
Kd (HLA-A*03:01 [3]; [24]): ≥ 20 µM
Kd (HLA-A*11:01; [24]): ≥ 20 µM
Kd (HLA-A*26:01 [5]; [24]): ≥ 20 µM
Kd (HLA-A*31:01; [24]): ≥ 20 µM
Kd (HLA-A*69:01; [24]): ≥ 20 µM
Kd (HLA-B*07:02; [24]): ≥ 20 µM
Kd (HLA-B*08:01; [24]): ≥ 20 µM
Kd (HLA-B*15:01 [6]; [24]): ≥ 20 µM
Kd (HLA-B*27:05; [24]): 0.654 µM
Kd (HLA-B*35:01; [24]): 1 µM
Kd (HLA-B*40:01; [24]): ≥ 20 µM
Kd (HLA-B*44:02; [24]): ≥ 20 µM
Kd (HLA-B*58:01; [24]): ≥ 20 µM

Sequence: YYVMGGAFL
Kd (HLA-A*24:03 [8]; source organism: Bacillus anthracis str. A0488): 0.0003 µM
